# From patent CN116284426A
# B1: SP34 (humanized anti-CD3 monoclonal antibody) (antibody, human IgG1, kappa, V domains shown)
# VH: EVQLVESGGGLVQPGGSLRLSCAASGFTFNTYAMNWVRQAPGKGLEWVARIRSKYNNYATYYADSVKDRFTISRDDSKNTLYLQMNSLRAEDTAVYYCVRHGNFGNSYVSWFAYWGQGTLVTVSS
# VL: QAVVTQEPSLTVSPGGTVTLTCRSSTGAVTTSNYANWVQQKPGQAPRGLIGGTNKRAPGVPARFSGSLLGGKAALTLSGAQPEDEAEYYCALWYSNLWVFGQGTKVEIKR
# What was measured:
# [1] = target: CD3εδ-ECD-his (CD3εδ异二聚体蛋白) (UniProt P07766); experiment: ELISA, CD3εδ-ECD-his coated at 1 ug/mL (Table 20)
# [2] = target: CD3εδ-ECD-his (CD3εδ异二聚体蛋白) (UniProt P07766); experiment: ELISA, CD3εδ-ECD-his coated at 1 ug/mL, anti-human IgG Fab HRP (Table 15)
binder,measurement,setting,value
B1,EC50,[1],0.118 nM
same,EC50,[2],0.13 nM
